What was measured:
[1] = molecular target: B7 antigen (B7-1, CD80) expressed on cells (human) (UniProt P33681); assay: B7-1+ CHO cell enzyme immunoassay; binding activity relative to CTLA4Ig, from the concentrations giving the same A450
[2] = molecular target: B7 antigen (B7-1, CD80) expressed on cells (human) (UniProt P33681); assay: enzyme immunoassay on fixed B7-1+ CHO cells

Chain of B7 antigen (B7-1, CD80) expressed on cells (human) (P33681 35-288): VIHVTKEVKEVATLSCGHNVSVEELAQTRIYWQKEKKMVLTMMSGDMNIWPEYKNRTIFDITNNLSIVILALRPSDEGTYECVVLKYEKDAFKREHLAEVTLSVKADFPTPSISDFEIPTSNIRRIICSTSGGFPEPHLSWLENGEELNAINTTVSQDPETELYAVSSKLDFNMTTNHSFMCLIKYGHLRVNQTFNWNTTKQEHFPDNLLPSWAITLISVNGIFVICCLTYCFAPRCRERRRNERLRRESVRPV

% B7 binding activity [1]	% binding activity relative to CTLA4Ig [2]	% of wild type binding [2]	Binder
5%	–	–	CTLA4/CD28Ig hybrid fusion protein HS4-B (Fc fusion, not shown: a dimerising Fc or GST) NKILVKQSPMLVAYDNAYNLSCKYSYNLFSREFRASLHKGLDSAVEVCVVYGNYSQQLQVYSKTGFNCDGKLGNESVTFYLQNLYVNQTDIYFCKIEVMYPPPYLDNEKSNGTIIYVIDPEPCPDSD
5%	–	–	CTLA4/CD28Ig hybrid fusion protein HS9 (Fc fusion, not shown: a dimerising Fc or GST) NKILVKQSPMLVAYDNAYNLSCKYASPGKATEFRASLHKGLDSAVEVCVVYGNYSQQLQVYSKTGFNCDGKLGNESVTFYLQNLYVNQTDIYFCKIEVMYPPPYLDNEKSNGTIIYVIDPEPCPDSD
44%	44%	–	CTLA4/CD28Ig hybrid fusion protein HS7 (Fc fusion, not shown: a dimerising Fc or GST) NKILVKQSPMLVAYDNAYNLSCKYASPGKATEFRASLHKGLDSAVEVCVVYGNYSQQLQVYSKTGFNCDGKLGNESVTFYLQNLYVNQTDIYFCKIELMYPPPYYLGIGNGTQIYVIDPEPCPDSD
56%	–	60%	CTLA4/CD28Ig hybrid fusion protein HS8 (Fc fusion, not shown: a dimerising Fc or GST) NKILVKQSPMLVAYDNAYNLSCKYASPGKATEFRASLHKGLDSAVEVCVVYGNYSQQLQVYSKTGFNCDGKLGNESVTFYLQNLYVNQTDIYFCKIELMYPPPYYLGIGNGTQIHVKGKHLCPS

Source: patent US7105166
